The target in assay [1] is lymphocytic lactoferrin receptor on Jurkat T lymphoblastic cells. As to the kind of experiment: 125I-labelled ligand binding to Jurkat cells at 4° C., Scatchard analysis.
Assay [2] deals with enterocytic lactoferrin receptor on HT-29-18C1 enterocytic cells (human). As to the kind of experiment: 125I-labelled ligand binding to HT-29-18C1 cells on ice, Scatchard analysis.
Assay [3] has the same target. Nature of the assay: 125I-labelled ligand on HT29 cells with 100 molar excess of non-labelled native Lf.
For assay [4], the target named is lymphocytic lactoferrin receptor on Jurkat T lymphoblastic cells. As to the kind of experiment: 125I-labelled ligand on Jurkat cells with 100 molar excess of non-labelled native Lf.

This is an account of results in patent US8334254.

As to “human lactoferrin isolated from human milk (from UniProt P02788 20-710) (ligand)”, the Kd (usually the concentration at which binding is half-saturated) is 89.7 nM in assay [1] and 1000 nM in assay [2]. The sites per cell (sites per cell) in assay [2] was determined as 4e+06. In addition, the non-specific binding as share of total binding in assay [3] and in assay [4] was 25% throughout.

“recombinant human lactoferrin rhLf2 from pBIOC21-PSSp-Lf, purified from tobacco leaves (transformant T30) (from UniProt P02788 20-710) (ligand)”: the equilibrium dissociation constant (Kd) in assay [1] was found to be 80.3 nM; in assay [2] it was 800 nM. The same substance came in with a sites per cell (sites per cell) in assay [2] of 1.8e+06. The non-specific binding as share of total binding in assay [3] and in assay [4] was 25% in each case.
